Read-outs that look alike come from different tables or passages of the source.

Assay [1] concerns the target T1, human TIGIT (T cell immunoreceptor with Ig and ITIM domains), expressed on cells (human, UniProt Q495A1 22-244).
T1 sequence: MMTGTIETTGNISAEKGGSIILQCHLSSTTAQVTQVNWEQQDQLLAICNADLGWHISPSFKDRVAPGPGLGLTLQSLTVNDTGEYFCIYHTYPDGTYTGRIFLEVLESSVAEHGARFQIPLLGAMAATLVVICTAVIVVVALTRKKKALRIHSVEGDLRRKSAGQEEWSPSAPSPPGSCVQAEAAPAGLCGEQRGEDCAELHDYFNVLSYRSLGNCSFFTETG
As to the kind of experiment: cell-based or functional assay.

For assay [2], the target named is T1, human TIGIT (T cell immunoreceptor with …). Put plainly: cell-based or functional assay. This is another data set of the same source.
For assay [3] the target is unchanged. As to the kind of experiment: cell-based or functional assay. This is another data set of the same source.
The target is the same in assay [4]. Put plainly: whole cell binding assays, n=3 (FIG. 10A). On the procedure: Jurkat cells stably expressing human TIGIT and NFAT reporter gene were established. Specifically, Jurkat cells were transfected with human TIGIT expression vector by electroporation, and cells stably expressing human TIGIT were selected by 1 μg/ml puromycin during cell culture. Representative antibody clones were incubated at different concentrations with h-TIGIT stably expressing Jurkat cells (0.2×10^6/ml) in 100 μl/well in 96-well plate in FACS buffer (PBS with 1.5% FBS) for 30 min. After washing, Alexaflour 488 conjugated anti-human IgG Fc secondary antibody (Alexa Fluor® 488 AffiniPure Goat Anti-Human IgG, Fcγ fragment specific, Jackson labs, 1:500 dilution) was added and incubated for 30 min. After washing, mean fluorescence intensity was measured using CytoFlex (Beckman Coulter) by gating live cell population. Binding affinity was calculated using GraphPad Prism.

B1: Bivalent 2A3 antibody (2A3-Fc) (Fc fusion)
chain: QVQLVESGGGVVQPGRSLRLSCAASGGSFSSYPMGWFRQAPGKERESVAAISSDMRFTYYADSVKGRFTISRDNSKNTLYLQMNSLRAEDTAVYYCAARDSGVGYYSRAQWYDYWGQGTLVTVSS
notes: ExpiCHO, protein A purified; also called 2A3 clone; parental 2A3-Fc; not shown: human IgG1 CH2 and CH3 domains
Consider B1, for which the “EC50, NFAT luciferase reporter assay (n=3)” value in assay [1] came to 0.48 nM. Besides, the “EC50 (read off the curve), NFAT luciferase reporter, TIGIT blockade” value was about 1 nM in assay [2] and about 0.7 nM in assay [3]. A half-maximal response in assay [4] (EC50) required 0.32 nM.

The values are drawn from patent US20230134580A1 (SHANGHAI HENLIUS BIOTECH, published 2023).
